# Experimental data: patent publication US20250186503A1, “METHODS AND COMBINATIONS FOR TREATMENT AND T CELL MODULATION” (Juno Therapeutics, Inc., priority 2018, published 2025)
# B1: BCMA-Fc fusion protein: extracellular domain of human BCMA and a human IgG1 Fc connected with a linker (SEQ ID NO: 22) (protein)
# chain: MPLLLLLPLLWAGALAMLQMAGQCSQNEYFDSLLHACIPCQLRCSSNTPPLTCQRYCNASVTNSVKGTNAGGGGSPKSSDKTHTCPPCPAPEAEGAPSVFLFPPKPKDTLMISRTPEVTCVVVDVSHEDPEVKFNWYVDGVEVHNAKTKPREEQYNSTYRVVSVLTVLHQDWLNGKEYKCKVSNKALPSSIEKTISKAKGQPREPQVYTLPPSRDELTKNQVSLTCLVKGFYPSDIAVEWESNGQPENNYKTTPPVLDSDGSFFLYSKLTVDKSRWQQGNVFSCSVMHEALHNHYTQKSLSLSPGK
# modifications: BCMA-Fc construct
# System: anti-BCMA CARs
# Experiment: Binding of BCMA-Fc fusion protein to CAR-expressing T cells (flow cytometry)
# Description: The clone encoding the human BCMA-Fc fusion construct with the N-terminal CD33 leader sequence (SEQ ID NO: 21) was inserted into an expression vector and expressed in HEK 293 cells. The resulting BCMA-Fc fusion protein was determined to have a purity of greater than 95% as assessed by gel permeation chromatography.
molecule,measurement,value
B1,binding to anti-BCMA CAR expressing T cells,specifically bound
